Data on one substance can be found in paper PMC3107930.

pKd: −log10 of the molar value.

The target of the experiment is motavizumab Fab. The experiment is described as follows: SPR. In general terms: In SPR one partner is held on a chip, and binding of the other changes the refractive index at the surface.

For the substance “RSV F peptide (motavizumab epitope peptide)”, the negative logarithm of the Kd (pKd) was 6.62.

Usually pKd stands for the negative decadic logarithm of the Kd, by convention in mol/L. Read a high pKd as a small Kd.
